Measured values published in patent EP4606822A1 (MULTITUDE THERAPEUTICS INC., dated 2024).

Columns and labels:
[1] = biological target: T1, HER3 on human tumor cell lines (human, UniProt P21860 20-1342); test: flow cytometry on SW620 cells
T1 construct: whole, on cells; The immunogen was the human HER3 extracellular domain (NM_001982.4, positions 20-643), but the flow cytometry assays used endogenous HER3 on cells; also called HER3 protein

[2] = biological target: T1, HER3 on human tumor cell lines; test: flow cytometry on MDA-MB-453 cells

T1 sequence (P21860 20-1342): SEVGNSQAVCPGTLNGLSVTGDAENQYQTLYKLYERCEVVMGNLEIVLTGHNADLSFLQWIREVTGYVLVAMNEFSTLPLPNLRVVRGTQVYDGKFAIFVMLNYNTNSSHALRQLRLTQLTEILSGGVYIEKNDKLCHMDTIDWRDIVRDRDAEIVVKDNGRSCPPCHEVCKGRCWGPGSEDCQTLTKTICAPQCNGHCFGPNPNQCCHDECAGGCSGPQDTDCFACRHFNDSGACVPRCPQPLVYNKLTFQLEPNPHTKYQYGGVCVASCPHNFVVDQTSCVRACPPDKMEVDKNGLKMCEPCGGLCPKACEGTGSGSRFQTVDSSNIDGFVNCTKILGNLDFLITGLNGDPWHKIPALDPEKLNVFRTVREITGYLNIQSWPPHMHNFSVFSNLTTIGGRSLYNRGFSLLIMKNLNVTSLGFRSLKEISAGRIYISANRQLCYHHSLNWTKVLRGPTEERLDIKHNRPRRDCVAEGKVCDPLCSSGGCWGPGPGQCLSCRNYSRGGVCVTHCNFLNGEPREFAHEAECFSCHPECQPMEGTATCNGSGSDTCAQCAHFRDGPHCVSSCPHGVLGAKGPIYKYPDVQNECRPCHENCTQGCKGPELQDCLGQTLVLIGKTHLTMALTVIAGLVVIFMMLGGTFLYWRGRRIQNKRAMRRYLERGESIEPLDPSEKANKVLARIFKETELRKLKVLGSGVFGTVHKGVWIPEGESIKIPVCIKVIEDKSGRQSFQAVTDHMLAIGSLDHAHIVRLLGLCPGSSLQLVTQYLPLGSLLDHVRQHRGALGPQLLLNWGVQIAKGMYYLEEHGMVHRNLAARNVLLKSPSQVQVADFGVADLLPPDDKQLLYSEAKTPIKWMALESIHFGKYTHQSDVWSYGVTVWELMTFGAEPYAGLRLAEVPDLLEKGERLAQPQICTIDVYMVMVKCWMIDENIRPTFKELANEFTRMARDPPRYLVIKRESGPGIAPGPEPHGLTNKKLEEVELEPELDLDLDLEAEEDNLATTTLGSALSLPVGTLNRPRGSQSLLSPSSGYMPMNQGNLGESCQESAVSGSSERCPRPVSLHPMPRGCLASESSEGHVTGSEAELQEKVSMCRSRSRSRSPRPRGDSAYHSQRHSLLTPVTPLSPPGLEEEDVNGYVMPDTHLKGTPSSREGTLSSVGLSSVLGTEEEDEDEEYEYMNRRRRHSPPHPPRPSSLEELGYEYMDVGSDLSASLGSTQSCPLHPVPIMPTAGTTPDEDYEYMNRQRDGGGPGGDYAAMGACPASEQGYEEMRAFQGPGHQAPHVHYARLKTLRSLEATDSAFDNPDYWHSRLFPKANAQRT

Binder | EC50 [1] [nM] | EC50 [2] [nM]
humanized 4O3 antibody L2H4 (antibody, human IgG1, kappa, V domains shown, also called Hu4O3) VH: QVQLQESGPGLVKPSQTLSLTCTVSGISITTGNYRWSWIRQHPGKKLEWIGNIYYSGAITYNPSLKSRVTISRDTSKNQFFLKLSSVTAADTAVYYCARDGGTVVEGWYFDVWGKGTTVTVSS VL: EIVLTQSPDTQSVTPKEKVTITCRASQSISDYLHWYQQKPDQSPKLLIKYASQSISGVPSRFSGSGSGTDFTLTINSLEAEDVGLYYCQSGRSFPLTFGGGTKVEIKR | 1200 | 
humanized 4O3 antibody L4H4 (antibody, human IgG1, kappa, V domains shown, also called Hu4O3) VH: QVQLQESGPGLVKPSQTLSLTCTVSGISITTGNYRWSWIRQHPGKKLEWIGNIYYSGAITYNPSLKSRVTISRDTSKNQFFLKLSSVTAADTAVYYCARDGGTVVEGWYFDVWGKGTTVTVSS VL: EIVLTQSPDTQSVTPKEKVTITCRASQSISDYLHWYQQKPGQAPKLLIKYASQSISGVPSRFSGSGSGTDFTLTINSLEAEDFGLYYCQSGRSFPLTFGGGTKVEIKR | 90 | 

Further binders by falling EC50 [1], results first:

EC50 [1] [nM] | EC50 [2] [nM] | Binder
194 | 71.5 | humanized 4O3 antibody L1H4 (antibody, human IgG1, kappa, also called Hu4O3) heavy: not shown light: EIVLTQSPDTQSVTPKEKVTITCRASQSISDYLHWYQQKPDQSPKLLIKYASQSISGVPSRFSGSGSGTDFTLTINSLEAEDAATYYCQSGRSFPLTFGGGTKVEIKRTVAAPSVFIFPPSDEQLKSGTASVVCLLNNFYPREAKVQWKVDNALQSGNSQESVTEQDSKDSTYSLSSTLTLSKADYEKHKVYACEVTHQGLSSPVTKSFNRGEC
147 | 122 | humanized 4O3 antibody L1H5 (antibody, human IgG1, kappa, also called Hu4O3 (L1H5); Hu4O3) heavy: not shown light: EIVLTQSPDTQSVTPKEKVTITCRASQSISDYLHWYQQKPDQSPKLLIKYASQSISGVPSRFSGSGSGTDFTLTINSLEAEDAATYYCQSGRSFPLTFGGGTKVEIKRTVAAPSVFIFPPSDEQLKSGTASVVCLLNNFYPREAKVQWKVDNALQSGNSQESVTEQDSKDSTYSLSSTLTLSKADYEKHKVYACEVTHQGLSSPVTKSFNRGEC
21.9 |  | humanized 4O3 antibody L4H7 (antibody, human IgG1, kappa, V domains shown, also called Hu4O3) VH: QVQLQESGPGLVKPSQTLSLTCTVSGISITTGNYRWSWIRQPPGKGLEWIGYIYYSGAITYNPSLKSRVTISRDTSKNQFSLQLRSVTAADTAVYYCARDGGTVVEGWYFDVWGQGTTVTVSS VL: EIVLTQSPDTQSVTPKEKVTITCRASQSISDYLHWYQQKPGQAPKLLIKYASQSISGVPSRFSGSGSGTDFTLTINSLEAEDFGLYYCQSGRSFPLTFGGGTKVEIKR
